Molecular target: the molecule itself
Assay: crystal structure

B1: MukB-D (MukB construct 566–863: hinge domain with part of the coiled coil domain) (domain or fragment, Escherichia coli, UniProt P22523 566-863, looked up)
chain: IASLSDSVSNAREERMALRQEQEQLQSRIQSLMQRAPVWLAAQNSLNQLSEQCGEEFTSSQDVTEYLQQLLEREREAIVERDEVGARKNAVDEEIERLSQPGGSEDQRLNALAERFGGVLLSEIYDDVSLEDAPYFSALYGPSRHAIVVPDLSQVTEHLEGLTDCPEDLYLIEGDPQSFDDSVFSVDELEKAVVVKIADRQWRYSRFPEVPLFGRAARESRIESLHAEREVLSERFATLSFDVQKTQRLHQAFSRFIGSHLAVAFESDPEAEIRQLNSRRVELERALSNHENDNQQQR
- binding result: binds
